Numbering of substitutions follows the chain as printed. In names and notes the source's numbering stands. Like-named read-outs stand apart in the source and are kept apart here. Each block holds one molecule with its values, some of them ahead of it.
Legend:
[1] = cited from earlier work
[2] = Time course of Rebaudioside A utilization and RebAG1 formation (NP-HPLC); assay type: biochemical; conditions: 1000 mM sucrose, 10 U/mL enzyme
Method: (§1) Incubation reactions were performed in 25 mM sodium acetate (pH 4.7), 1 mM CaCl2, 50 to 1,000 mM sucrose, 50-100 mM steviol glycoside, and 2-30 U/mL purified GTF180-ΔN enzyme or GTF180-ΔN mutant enzyme at 37° C. for 15 min to 24 hours. Reactions were stopped by heat inactivation (100° C. for 15 min). From the inactivated samples 250 uL was mixed with 1000 ul of 10 mM catechol (internal standard) and subsequently purified by solid phase extraction using Strata-X 33u Polymeric Reversed Phase columns (Phenomenex). For HPLC analysis 20 μL of the purified sample was injected on a Luna 10 μm NH2 chromatography column (250 mm×4.6 mm; Phenomenex). Reaction components were separated at a flow-rate of 1 mL/min under gradient elution conditions, starting with a 2 min isocratic step of 70% solvent A followed by a linear gradient from 70 to 55% solvent A over 9 min (solvent A=acetonitrile; solvent B=0.025% acetic acid). Rebaudioside A and the mono-α-glucosylated Rebaudioside A product concentrations were determined with NP-HPLC, using their corresponding calibration curves ranging from 1.56 to 50 mM. All data were normalized with catechol as internal standard. The standard deviation of the response was less than 5%. […]

[3] = Isolation and structural analysis (NMR, methylation analysis) of α-glucosylated Rebaudioside A products; assay type: biochemical; conditions: 10 U/mL enzyme, 50 mM Rebaudioside A, 2 x 1000 mM sucrose, 24 hours
Method: For quantitative synthesis of α-glucosylated Rebaudioside A products using GTF180-ΔN and its derived mutants, incubations were performed in 5 mL 25 mM sodium acetate (pH 4.7), 1 mM CaCl2, 50 mM steviol glycoside with two batches of 1,000 mM equivalent of sucrose donor (t=0 and 3 h) to a total of 2,000 mM sucrose, using 10 U/mL enzyme at 37° C. for 24 hours. Products were purified from the incubation mixture by solid phase extraction using Strata-X 33u Polymeric Reversed Phase columns (Phenomenex). Products were separated on a Luna 10 μm NH2 semi-preparative chromatography column (250 mm×10 mm, Phenomenex) and were manually collected at a flow-rate of 4.6 mL/min, starting with a 2 min isocratic step of 80% solvent A followed by a linear gradient of 80 to 50% solvent A over 38 min (solvent A=acetonitrile; solvent B=0.025% acetic acid). The solvent of the collected fractions was evaporated under a stream of nitrogen gas and the dried materials were dissolved in deionized water.
Resolution-enhanced 1D/2D 500-MHz ^1H NMR spectra were recorded in D2O on a Bruker DRX-500 spectrometer (Bijvoet Center, Department of NMR Spectroscopy, Utrecht University) at a probe temperature of 334K. Data acquisition and processing were done with Bruker Topspin 2.1. Prior to analysis, samples were exchanged twice in D2O (99.9 atom % D, Cambridge Isotope Laboratories, Inc., Andover, Mass.) with intermediate lyophilization, and then dissolved in 0.6 mL D2O. […] The 2D TOCSY spectra were recorded using an MLEV-17 (composite pulse devised by Levitt et al (1982)) mixing sequence with spin-lock times of 40-200 ms. The 2D ROESY spectra were recorded using standard Bruker XWINNMR software with mixing time of 200 ms. […] Natural abundance 2D ^13C-^1H HSQC experiments (^1H frequency 500.0821 MHz, ^13C frequency 125.7552 MHz) were recorded without decoupling during acquisition of the ^1H FID. […]

[4] = Screening glucan and fructansucrase enzymes for α-glucosylation of Rebaudioside A; assay type: biochemical; conditions: compared to GTF180-ΔN where comparative
Method: as §1

[5] = Polymerization (oligosaccharide and glucan formation from sucrose) activity; assay type: biochemical; conditions: data not shown
Method: Over a hundred glucan and fructansucrase wild type and mutant enzymes, mostly from Lactobacillus reuteri, were screened for Rebaudioside A α-glucosylation. For this, enzymes were incubated in 50 mM Rebaudioside A (FIG. 1) and 1000 mM sucrose for 3 hours. […] This is a clear advantage during downstream processing, the purification of the α-glucosylated Rebaudioside A products from mono- and disaccharides, oligosaccharides and glucans. By eliminating α-glucan synthesis, the most important side reaction, higher glycosylation yields were obtained for Rebaudioside A. At lower sucrose concentration (200 mM), these mutants had similar or even higher transglucosylating activity with Rebaudioside A than GTF180-ΔN and mutants S1137Y and Q1140E (data not shown).

[6] = in water and in carbonated beverage base

Molecule: C=C1C[C@@]23CC[C@H]4[C@@](C)(CCC[C@@]4(C)C(=O)O[C@@H]4O[C@H](CO)[C@@H](O)[C@H](O[C@@H]5O[C@H](CO)[C@@H](O)[C@H](O)[C@H]5O)[C@H]4O[C@@H]4O[C@H](CO)[C@@H](O)[C@H](O)[C@H]4O)[C@@H]2CC[C@]1(O[C@@H]1O[C@H](CO)[C@@H](O)[C@H](O[C@@H]2O[C@H](CO)[C@@H](O)[C@H](O)[C@H]2O)[C@H]1O[C@@H]1O[C@H](CO)[C@@H](O)[C@H](O)[C@H]1O)C3 [Rebaudioside M]
bitterness compared to Rebaudioside A ([1]; in acidified water): reduced bitterness
sweetness compared to Rebaudioside A ([1]; in acidified water): higher sweetness
bitterness compared to Rebaudioside A ([1]; in water solution): reduced bitterness

Molecule: C=C1C[C@@]23CC[C@H]4[C@@](C)(CCC[C@@]4(C)C(=O)O[C@@H]4O[C@H](CO)[C@@H](O)[C@H](O)[C@H]4O[C@@H]4O[C@H](CO)[C@@H](O)[C@H](O)[C@H]4O)[C@@H]2CC[C@]1(O[C@@H]1O[C@H](CO)[C@@H](O)[C@H](O[C@@H]2O[C@H](CO)[C@@H](O)[C@H](O)[C@H]2O)[C@H]1O[C@@H]1O[C@H](CO)[C@@H](O)[C@H](O)[C@H]1O)C3 [Rebaudioside D]
bitterness compared to Rebaudioside A [1, 6]: decreased bitterness
sweetness compared to Rebaudioside A [1, 6]: increased sweetness

B1: GTF180-ΔN: N-terminal truncated GTF180 (AY697430) of Lactobacillus reuteri 180; Met-Gly-742-1772-His6 (protein, listed as Lactobacillus reuteri)
chain: MGINGQQYYIDPTTGQPRKNFLLQNGNDWIYFDKDTGAGTNALKLQFDKGTISADEQYRRGNEAYSYDDKSIENVNGYLTADTWYRPKQILKDGTTWTDSKETDMRPILMVWWPNTVTQAYYLNYMKQYGNLLPASLPSFSTDADSAELNHYSELVQQNIEKRISETGSTDWLRTLMHEFVTKNSMWNKDSENVDYGGLQLQGGFLKYVNSDLTKYANSDWRLMNRTATNIDGKNYGGAEFLLANDIDNSNPVVQAEELNWLYYLMNFGTITGNNPEANFDGIRVDAVDNVDVDLLSIARDYFNAAYNMEQSDASANKHINILEDWGWDDPAYVNKIGNPQLTMDDRLRNAIMDTLSGAPDKNQALNKLITQSLVNRANDNTENAVIPSYNFVRAHDSNAQDQIRQAIQAATGKPYGEFNLDDEKKGMEAYINDQNSTNKKWNLYNMPSAYTILLTNKDSVPRVYYGDLYQDGGQYMEHKTRYFDTITNLLKTRVKYVAGGQTMSVDKNGILTNVRFGKGAMNATDTGTDETRTEGIGVVISNNTNLKLNDGESVVLHMGAAHKNQKYRAVILTTEDGVKNYTNDTDAPVAYTDANGDLHFTNTNLDGQQYTAVRGYANPDVTGYLAVWVPAGAADDQDARTAPSDEAHTTKTAYRSNAALDSNVIYEGFSNFIYWPTTESERTNVRIAQNADLFKSWGITTFELAPQYNSSKDGTFLDSIIDNGYAFTDRYDLGMSTPNKYGSDEDLRNALQALHKAGLQAIADWVPDQIYNLPGKEAVTVTRSDDHGTTWEVSPIKNVVYITNTIGGGEYQKKYGGEFLDTLQKEYPQLFSQVYPVTQTTIDPSVKIKEWSAKYFNGTNILHRGAGYVLRSNDGKYYNLGTSTQQFLPSQLSVQDNEGYGFVKEGNNYHYYDENKQMVKDAFIQDSVGNWYYLDKNGNMVANQSPVEISSNGASGTYLFLNNGTSFRSGLVKTDAGTYYYDGDGRMVRNQTVSDGAMTYVLDENGKLVSESFDSSATEAHPLKPGDLNGQK
Rebaudioside A conversion ([2]; 50 mM Rebaudioside A): 55%
RebAG1 formed from 50 mM Rebaudioside A [2]: ~13 mM
share of di-glucosylated Rebaudioside A product elongated with an (α1→3)-linked glucose [3]: ~75%
share of di-glucosylated Rebaudioside A product elongated with another (α1→6)-linked glucose [3]: ~25%
share of mono-α-glucosylated product with (α1→6)-linked glucose at the C-19 β-linked glucose [3]: 100%

α-glucosylation / transglucosylating activity towards Rebaudioside A (in words) [4]: able to α-glucosylate Rebaudioside A
B2: GTF180-ΔN-XM2: single amino acid mutant (W1065L) of GTF180-ΔN (protein, listed as Lactobacillus reuteri)
chain: B1 chain with W326L
polymerization (oligosaccharide and glucan formation) activity [5]: almost no polymerization
